Source: publication PMC12823420
Each block holds one substance with its values, some of them ahead of it.

Legend:
[1] = target: UAP56;SARNP (Homo sapiens;Homo sapiens) (UniProt Q13838); assay: pull-down; settings: 1 mM AMP-PNP; UAP56 bound with SARNP set to 100%; GCI: 25 mM HEPES pH 7.9, 50 mM KCl, 1 mM MgCl2, 1 mM TCEP, 1 mM ATP, 25 C; AdML pull-down: 20 mM HEPES pH 7.9, 100 mM KCl, 2 mM MgCl2, 5% glycerol, 0.1% …
[2] = target: ALYREF N-UBM peptide, biotinylated (human); assay: grating-coupled interferometry (GCI); biotinylated UBM or UCM peptides captured on a streptavidin chip; UAP56 injected; 25 mM HEPES pH 7.9, 50 mM KCl, 1 mM MgCl2, 1 mM TCEP, 25 °C; one-to-one model; UCM peptides also with AMP-PNP or AMP-PNP and 15 U RNA
[3] = target: the THO complex (recombinant, surface-immobilized; tetramer, dimer or monomer, not told apart in the sentence); assay: grating-coupled interferometry (GCI); V5-tagged THO complex captured on an anti-V5 chip; UAP56 injected in a 1:2 series from 5 μM, alone or with only 1 mM ATP or only 200 μM 15 U RNA; 25 mM HEPES pH 7.9, 50 mM KCl, 1 mM MgCl2, 1 mM TCEP, 25 °C; one-to-one model
[4] = target: UAP56-UCM-1-N-UBM fusion (Homo sapiens) (UniProt Q13838+P82979+Q86V81); assay: GCI; settings: 1 mM ATP, RNA immobilized, GCI: 25 mM HEPES pH 7.9, 50 mM KCl, 1 mM MgCl2, 1 mM TCEP, 25 C, AdML pull-down: 20 mM HEPES pH 7.9, 100 mM KCl, 2 mM MgCl2, 5% glycerol, 0.1% …

Substance: AdML RNA with MS2 loops, 450 nt
binding signal [1]: 100%

Kd [2]: 28 µM | Kd [3]: 240 to 390 nM
Substance: UAP56 (from UniProt Q13838 1-428) (enzyme)

Substance: UUUUUUUUUUUUUUU [15U RNA]
Kd [4]: 120 nM
